Patent US20220073604A1 (ARGENX BVBA, published 2022)
“And” between values parts separate entries of the source, which are not always exact repeats. Identical values can stand only once. One block for each binder: values may come before it.

How the values were obtained:
human IL-6 = molecular target: T1, human IL-6 (human, UniProt P05231 30-212); assay: SPR; periplasmic fraction; average of the IL-6 channels; parameters: unit not given here
T1 construct: Used where the text says only IL-6 or human IL-6 (crystals: rh IL-6 from Immunotools; cell assays) and for values averaged over the bacterial and eukaryotic IL-6 channels; also called interleukin-6; rh IL-6

[1] = molecular target: T2, eukaryotically produced human IL-6 (human, UniProt P05231 30-212); assay: SPR; periplasmic fraction
T2 construct: also called eukIL-6; Euk IL-6
Description: (§1) From the washing phase the off-rate (kd) was determined, while from the injection phase the on-rate (ka) was calculated using the concentration and off-rate as parameters.

[2] = molecular target: T3, bacterially produced human IL-6 (human, UniProt P05231 30-212); assay: SPR; periplasmic fraction
T3 construct: also called bactIL-6; prokaryotic IL-6
Description: as §1

[3] = molecular target: T3, bacterially produced human IL-6; assay: SPR; periplasmic fraction; ratio bact to euk IL-6
Description: as §1

[4] = molecular target: T4, bacterially produced cynomolgus monkey IL-6 (cynomolgus monkey, UniProt P79341 28-212, limits assumed); assay: off-rate of Fab 111A7 variant on bact-cy IL-6 (binding kinetics, SPR presumed; n = 1)
T4 construct: also called bact-cy IL-6; HIS-cyIL-6

[5] = molecular target: IL-6 (bact-hIL-6, euk-hIL-6 and bact-cy IL-6; 'average binding' of Table 21); assay: average binding level in the off-rate screen (unit not given; n = 1)
[6] = molecular target: IL-6 (bact-hIL-6, euk-hIL-6 and bact-cy IL-6; 'average binding' of Table 21); assay: average binding level in the off-rate screen (unit not given; n = 3)
[7] = molecular target: T4, bacterially produced cynomolgus monkey …; assay: off-rate of Fab 111A7 variant on bact-cy IL-6 (binding kinetics, SPR presumed; n = 3)
[8] = molecular target: T2, eukaryotically produced human IL-6; assay: SPR; purified Fab; IL-6 coated on CM5 chip;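 also: dissociation rate taken from the wash phase, association rate fitted over the injection phase with analyte concentration and dissociation rate as inputs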
Description: as §1

[9] = molecular target: T3, bacterially produced human IL-6; assay: SPR; purified Fab; IL-6 coated on CM5 chip;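 also: dissociation rate taken from the wash phase, association rate fitted over the injection phase with analyte concentration and dissociation rate as inputs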
Description: as §1

[10] = molecular target: IL-6 surfaces of Table 8 (Bact, euk, cyno), average; assay: SPR (Biacore), off-rate screen
[11] = molecular target: T5, eukaryotically produced human IL-6 (human, UniProt P05231 30-212); assay: SPR (Biacore), purified Fab
T5 construct: Immobilised on the Biacore chip; also called Euk IL-6; EUK IL-6 (3-1)

[12] = molecular target: T6, bacterially produced human IL-6 (human, UniProt P05231 30-212); assay: SPR (Biacore), purified Fab
T6 construct: Immobilised on the Biacore chip; also called BACT IL-6 (2-1); bactIL-6

[13] = molecular target: human IL-6 (as added in the B9 and 7TD1 bioassays) (human) (UniProt P05231)
[14] = molecular target: human IL-6 (as added in the B9 and 7TD1 bioassays) (human) (UniProt P05231); assay: cell-based or functional assay

B1: Fab 28B6 (Fab, V domains shown)
VH: QVQLVESGGGLVQPGGSLRLSCAASGFTFSNYYMTWVRQAPGKGLEWVSSIYSFSGDTAYADSVKGRFTISRDNAKNTLYLQMNSLKSEDTAVYYCTRNLGGVVVTTNGYDYWGQGTQVTVSS
VL: DIQLTQSPSSLSASLGDRVTITCQASQSISTELSWYQQKPGQTPKLLIYGASRLQTGVPARFSGSGSGTSFTLTISGLEAEDLATYYCLQDYSWPYSFGSGTRL
notes: Fab; also called 28f3(28B6)
- average binding (human IL-6): 43
- koff [1]: 3.5e-05 s⁻¹
- koff [2]: 7.71e-05 s⁻¹
- ratio bact/euk [3]: 1

B2: Fab 111A7 with the CDR3 methionine changed to C (Fab, V domains shown)
VH: EVQLLESGGGLVQPGGSLRLSCAASGFTFSSYAMSWVRQAPGKGPEWVSRISAGGGSTYYGDSVKGRFTISRDNSKNTLYLQMNSLRAEDTAVYYCANRAGWGCGDYWGQGTLVTVSS
VL: QTVVTQEPSFSVSPGGTVTLTCGLSSGSVTASNYPGWYQQTPGQAPRALIYSTNDRHSGVPDRFSGSISGNKAALTITGAQAEDEADYYCALDIGDITEFGGGTQLTVL
- koff [4]: 9.46e-05 s⁻¹
- average binding [5]: 42

B10: Fab 111A7 with the CDR3 methionine changed to K (Fab, V domains shown)
VH: EVQLLESGGGLVQPGGSLRLSCAASGFTFSSYAMSWVRQAPGKGPEWVSRISAGGGSTYYGDSVKGRFTISRDNSKNTLYLQMNSLRAEDTAVYYCANRAGWGKGDYWGQGTLVTVSS
VL: QTVVTQEPSFSVSPGGTVTLTCGLSSGSVTASNYPGWYQQTPGQAPRALIYSTNDRHSGVPDRFSGSISGNKAALTITGAQAEDEADYYCALDIGDITEFGGGTQLTVL
- koff [4]: 0.00417 s⁻¹
- average binding [5]: 81

B11: Fab 24A3 (Fab, V domains shown)
VH: QVQVQESGGGLVQPGGSLRLSCAASGFTFSNYAMSWVRQAPGKGLEWVSGISFRGGMISYVDSVKGRFTISRDNAKNTLYLQMNSLKPEDTAVYYCAKNSGSSRSNALDAWGQGTLVTVSS
VL: LNFMLTQPPSVSGSPGQKFTIRCTGSFRSDSYVNWYQQLPGTAPKLLINYDDRRVSGVPSRFSGSKSGNSASLTIDGLQAEDEAEYYCSFWDHTFGGHVFGGGTKLTVLG
notes: Fab; also called 28f10(24A3)
- average binding (human IL-6): 286
- koff [1]: 7.6e-05 s⁻¹
- koff [2]: 8.42e-05 s⁻¹
- ratio bact/euk [3]: 1.2
- Kd [8]: 0.59 nM
- koff [8]: 0.00011 s⁻¹
- Kd [9]: 0.22 nM
- koff [9]: 4.8e-05 s⁻¹

B12: 55H1 (Fab, V domains shown)
VH: EVQLVESGGGLVQPGGSLRLSCAASGFTFSSYAMSWVRQAPGKGLEWVSRISSGGISTYYADSVKGRFTISRDNAKNTLYLQMNSLKPEDTAVYYCVRYAWGVQWAFDFWGQGTQVTVSS
VL: AQSVVTQPPSVSGSPGKTVTISCAGTSSDVGYGNYVSWYQQLPGMAPKLLIYDVSKRASGIADRFSGSKSGNTASLTISGLQSEDEADYVCASYRRGGTAVFGGGTHLTVLG
- Average binding (RU) [10]: 773 RU and 770 RU and 873 RU

B15: Fab 24G3 (Fab, V domains shown)
VH: QLQVVESGGGLVQPGSSLRLSCGASGFTFSSHRMYWVRQPPGKGLEWVSAISSSGVSTYYADSVKGRFTISRDNAKNTVYLQMNSLKPEDTALYYCKRRTWYGGEYDYWGQGTQVTVSS
VL: QTVVTQEPSLSVSPGGTVTLTCGLSSGSVTASNYPGWFQQTPGQAPRALIYSTNDRHSGVPSRFSGSISGNKAALTITGAQPEDEADYYCALDIGDITEFGGGTHLTVLG
notes: Fab; also called 28g12(24G3)
- average binding (human IL-6): 46
- koff [1]: 7.52e-05 s⁻¹
- koff [2]: 0.000112 s⁻¹
- ratio bact/euk [3]: 0.96

B16: B-E8 (IL-6 neutralizing benchmark antibody) (antibody, from another filing, V domains shown)
VH: QVTLKESGPGILKPSQTLSLTCSFSGFSLSTSGMGVGWIRQPSGKGLEWLAHIWWDDDKYYNPSLKSQLTISKDTSRNQVFLKITSVDTADTATYYCARSYDDYLYYALDYWGQGTSVTVSS
VL: DIVMTQSPATLSVTPGDRVSLSCRASQSISDYLHWYQQKSHESPRLLIKSVSQSISGIPSRFSGSGSGSDFTLSINSVEPEDVGVYYCQNGHSFPLTFGAGTKLELK
- IC50 (read off the curve), B9 cell proliferation [13]: 0.008 nM
- IC 50, B9 cell proliferation [14]: 0.00511 nM
- Rel. potency, B9 cells [14]: 0.2

Further lines, results first:

- koff [4]: 0.000207 s⁻¹
- average binding [5]: 137
B3: Fab 111A7 with the CDR3 methionine changed to N (Fab, V domains shown)
VH: EVQLLESGGGLVQPGGSLRLSCAASGFTFSSYAMSWVRQAPGKGPEWVSRISAGGGSTYYGDSVKGRFTISRDNSKNTLYLQMNSLRAEDTAVYYCANRAGWGNGDYWGQGTLVTVSS
VL: QTVVTQEPSFSVSPGGTVTLTCGLSSGSVTASNYPGWYQQTPGQAPRALIYSTNDRHSGVPDRFSGSISGNKAALTITGAQAEDEADYYCALDIGDITEFGGGTQLTVL

- koff [4]: 0.000203 s⁻¹
- average binding [5]: 144
B4: Fab 111A7 with the CDR3 methionine changed to F (Fab, V domains shown)
VH: EVQLLESGGGLVQPGGSLRLSCAASGFTFSSYAMSWVRQAPGKGPEWVSRISAGGGSTYYGDSVKGRFTISRDNSKNTLYLQMNSLRAEDTAVYYCANRAGWGFGDYWGQGTLVTVSS
VL: QTVVTQEPSFSVSPGGTVTLTCGLSSGSVTASNYPGWYQQTPGQAPRALIYSTNDRHSGVPDRFSGSISGNKAALTITGAQAEDEADYYCALDIGDITEFGGGTQLTVL

- koff [4]: 0.000121 s⁻¹
- average binding [5]: 64
B5: Fab 111A7 with the CDR3 methionine changed to R (Fab, V domains shown)
VH: EVQLLESGGGLVQPGGSLRLSCAASGFTFSSYAMSWVRQAPGKGPEWVSRISAGGGSTYYGDSVKGRFTISRDNSKNTLYLQMNSLRAEDTAVYYCANRAGWGRGDYWGQGTLVTVSS
VL: QTVVTQEPSFSVSPGGTVTLTCGLSSGSVTASNYPGWYQQTPGQAPRALIYSTNDRHSGVPDRFSGSISGNKAALTITGAQAEDEADYYCALDIGDITEFGGGTQLTVL

- koff [4]: 0.000177 s⁻¹
- average binding [5]: 26
B6: Fab 111A7 with the CDR3 methionine changed to W (Fab, V domains shown)
VH: EVQLLESGGGLVQPGGSLRLSCAASGFTFSSYAMSWVRQAPGKGPEWVSRISAGGGSTYYGDSVKGRFTISRDNSKNTLYLQMNSLRAEDTAVYYCANRAGWGWGDYWGQGTLVTVSS
VL: QTVVTQEPSFSVSPGGTVTLTCGLSSGSVTASNYPGWYQQTPGQAPRALIYSTNDRHSGVPDRFSGSISGNKAALTITGAQAEDEADYYCALDIGDITEFGGGTQLTVL

- average binding [6]: 104
- koff [7]: 0.000158 s⁻¹
B7: Fab 111A7 with the CDR3 methionine changed to Y (Fab, V domains shown)
VH: EVQLLESGGGLVQPGGSLRLSCAASGFTFSSYAMSWVRQAPGKGPEWVSRISAGGGSTYYGDSVKGRFTISRDNSKNTLYLQMNSLRAEDTAVYYCANRAGWGYGDYWGQGTLVTVSS
VL: QTVVTQEPSFSVSPGGTVTLTCGLSSGSVTASNYPGWYQQTPGQAPRALIYSTNDRHSGVPDRFSGSISGNKAALTITGAQAEDEADYYCALDIGDITEFGGGTQLTVL

- average binding [6]: 112
- koff [7]: 0.000234 s⁻¹
B8: Fab 111A7 with the CDR3 methionine changed to D (Fab, V domains shown)
VH: EVQLLESGGGLVQPGGSLRLSCAASGFTFSSYAMSWVRQAPGKGPEWVSRISAGGGSTYYGDSVKGRFTISRDNSKNTLYLQMNSLRAEDTAVYYCANRAGWGDGDYWGQGTLVTVSS
VL: QTVVTQEPSFSVSPGGTVTLTCGLSSGSVTASNYPGWYQQTPGQAPRALIYSTNDRHSGVPDRFSGSISGNKAALTITGAQAEDEADYYCALDIGDITEFGGGTQLTVL

- average binding [6]: 109
- koff [7]: 0.000205 s⁻¹
B9: Fab 111A7 with the CDR3 methionine changed to G (Fab, V domains shown)
VH: EVQLLESGGGLVQPGGSLRLSCAASGFTFSSYAMSWVRQAPGKGPEWVSRISAGGGSTYYGDSVKGRFTISRDNSKNTLYLQMNSLRAEDTAVYYCANRAGWGGGDYWGQGTLVTVSS
VL: QTVVTQEPSFSVSPGGTVTLTCGLSSGSVTASNYPGWYQQTPGQAPRALIYSTNDRHSGVPDRFSGSISGNKAALTITGAQAEDEADYYCALDIGDITEFGGGTQLTVL

- Average binding (RU) [10]: 635 RU
B13: 61H7 (Fab, V domains shown)
VH: EVQLVESGGGLVQPGGSLRLSCAASGFTFSSYRMYWVRQPPGKGLEWVSAISAGGGSTYYGDSVKGRFTISRDNAKNTVYLQMNSLKPEDTAVYYCANRAGWGMGDYWGQGTQVTVSS
VL: QTVVTQEPSLSVSPGGTVTLTCGLSSGSVTASNYPGWFQQTPGQAPRALIYSTNDRHSGVPSRFSGSISGNKAALTITGAQPEDEADYYCALDIGDITEFGGGTHLTVLG

- Kd [11]: 0.2 nM
- koff [11]: 6.6e-05 s⁻¹
- kon [11]: 330000 M⁻¹ s⁻¹
- Kd [12]: 0.16 nM
- koff [12]: 5.7e-05 s⁻¹
- kon [12]: 350000 M⁻¹ s⁻¹
- Average binding (RU) [10]: 597 RU
B14: 61B7 (Fab, V domains shown)
VH: ELQLVESGGGLVQPGGSLRLSCAASGFTFSSYAMSWVRQAPGKGPEWVSRISSGGGSAYYADSVKGRFTISRDNAKNTLYLQMNSLKPEDTAVYYCANRAGWGMGDYWGQGTQVTVSS
VL: QTVVTQEPSLSVSPGGTVTLTCGLSSGSVTASNYPGWFQQTPGQAPRALIYSTNDRHSGVPSRFSGSISGNKAALTITGAQPEDEADYYCALDIGDITEFGGGTHLTVLG
notes: Fab
